# Reference: paper PMC9376891 (Nature Communications, 2022)
# B1: Rae1(31-368)-Nup98(157-213) heterodimer (complex)
# chain 1: DIEVTSSPDDSIGCLSFSPPTLPGNFLIAGSWANDVRCWEVQDSGQTIPKAQQMHTGPVLDVCWSDDGSKVFTASCDKTAKMWDLSSNQAIQIAQHDAPVKTIHWIKAPNYSCVMTGSWDKTLKFWDTRSSNPMMVLQLPERCYCADVIYPMAVVATAERGLIVYQLENQPSEFRRIESPLKHQHRCVAIFKDKQNKPTGFALGSIEGRVAIHYINPPNPAKDNFTFKCHRSNGTNTSAPQDIYAVNGIAFHPVHGTLATVGSDGRFSFWDKDARTKLKTSEQLDQPISACCFNHNGNIFAYASSYDWSKGHEFYNPQKKNYIFLRNAAEELKPRNKK
# chain 2: not shown
# notes: also called Rae1-Nup98; Rae1-Nup98 complex
# Molecular target: SARS-CoV-2 ORF6 C3 + YP (SARS-CoV-2 | SARS-CoV)
# Assay: ITC
# Conditions: both partners purified
# Chain of SARS-CoV-2 ORF6 C3 + YP (SARS-CoV-2 | SARS-CoV) (P52948 157-213): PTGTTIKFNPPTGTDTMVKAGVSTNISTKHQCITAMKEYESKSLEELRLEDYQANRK
binder,measurement,value
B1,Kd,0.2 µM
